{"source": "paper PMC12632272", "key": {"[1]": {"target": "T1, CRP (cAMP receptor protein) (Escherichia coli ATCC 25922) (UniProt P0ACJ8)", "T1 sequence": "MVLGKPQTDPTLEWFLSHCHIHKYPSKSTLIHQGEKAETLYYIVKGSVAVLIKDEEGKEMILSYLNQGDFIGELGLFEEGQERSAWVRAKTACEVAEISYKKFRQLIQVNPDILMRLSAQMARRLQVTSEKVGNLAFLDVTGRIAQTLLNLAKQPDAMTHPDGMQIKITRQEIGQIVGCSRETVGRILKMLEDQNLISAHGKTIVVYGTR", "experiment": "EMSA", "details": "EMSA: 20 mM Tris (pH not stated), 10 mM MgCl2, 0.1 mM EDTA, 100 mM KCl, 200 uM cAMP, room temperature 15 min; 5% gel, 0.3x TBE, 150 V, 20 C"}, "[2]": {"target": "T1, CRP (cAMP receptor protein) (Escherichia coli ATCC 25922)", "experiment": "competition", "details": "EMSA: 20 mM Tris (pH not stated), 10 mM MgCl2, 0.1 mM EDTA, 100 mM KCl, 200 uM cAMP, room temperature 15 min; 5% gel, 0.3x TBE, 150 V, 20 C"}}, "data": [{"sequence": "CGCCTAAGTTTGCCCGTAATAATTCCCCGTGCAGTACTATTGTTGCGACATAACAACATGAATTACATGGTAATAATAGATGTTTTCCTCTGCTGATTCCTGTAAAGATCATGACTCCATACGACATCATTTTTAATATTATACAGTTCAAAAAATCTACATGTGTCACAAATAATTTTACATTTGATAATGTATAGTTGTCACATGACAAGTTGATTATCATTCTGTGTAGACAAGGAGAACTGTTATGACGGAT (double strand) [P1/2 DHAP shunt promoter fragment]", "values": [{"measurement": "binding", "setting": "[1]", "value": "binds"}]}, {"sequence": "CGCCTAAGTTTGCCCGTAATAATTCCCCGTGCAGTACTATTGTTGCGACATAACAACATGAATTACATGGTAATAATAGATGTTTTCCTCTGCTGATTCCTGTAAAGATCATGACTCCATACGACATCATTTTTAATATTATACAGTTCAAAAAATCTACATGTGTCACAAATAATTTTACATTTGATAATGTATAGTTGTCACATGACAAGTTGATTATCATTCTGTGTAGACAAGGAGAACTGTTATGACGGAT (double strand) [P1/2 unlabeled competitor]", "values": [{"measurement": "binding", "setting": "[2]", "value": "binds"}]}]}
